Assay results: patent US20090274696A1, “METHODS FOR TREATING INFLAMMATION” (WYETH, priority 2008, published 2009)

Legend:
[1] = system: tracheal smooth muscle (TSM) of mouse tracheal rings; experiment: CCh-evoked force generation in cultured tracheal rings; assay type: cell-based; settings: for Maximal tensions (%), CCh-evoked force generation: PBS-treated rings 100±8.39; for TSM sensitivity to CCh, LogEC50: Mean ± SE, N=6
Protocol: Experimental animals were sacrificed by CO2 asphyxiation. Tracheas were surgically excised and cleaned of adherent connective tissue. Each trachea was sectioned into rings 3-4 mm in length and cultured in DMEM containing 1.0 M HEPES, 1.0 M NaOH, 5% of heat-inactivated FBS (Hy-Clone, Logan, Utah), 0.2M glutamine, 1.0 M CaCl2, 2.5 μg/ml fungizone, 5 μg/mL insulin, 100 U/mL penicillin and 100 μg/mL streptomycin) (DMEM-5%) for 24 hours. For in vitro experiments, the tracheal rings were cultured in DMEM in the absence and presence of either 10 or 100 nM recombinant FIZZ1 (Leinco Technologies, USA) for 24 hours.
Trachea were supported longitudinally by a plexiglas rod with a stainless steel pin into the base of a double-jacketed, glass organ bath filled with 10 mL of Krebs-Henseleit (K-H) solution (37° C.) of the following composition: 118 mM NaCl; 4.7 mM KCl; 1.2 mM KH2PO4; 11.1 mM Dextrose; 1.2 mM MgSO4; 2.8 mM CaCl2; and 25 mM NaHCO3. The solution was maintained at a pH of 7.40-7.45 and continuously gassed with a mixture of 5% CO2 and […] for the duration of each experiment. […] Initial tensions of TSM were set at approximately 0.5 g and maintained for 1 hour. Agonists were given after a steady state of tension had been reached.
[CCh]-response curves at the doses ranging from 3×10^−8 to 10^−5 M were completed in tracheal rings in absence and presence of either FIZZ1 or LPS (0.1 ng/mL). Concentrations of agonist were increased only when force responses to the previous concentration had stabilized. To examine TSM relaxant responses to isoprenaline (ISO), tracheal rings were first contracted by an addition of 1.0 μM CCh (Sigma, USA). Once the contraction had stabilized, ISO (Sigma, USA) was introduced into each bath at increasing concentrations (3×10^−8-10^−5 M). […] In an additional experiment, the effect of FIZZ1 protein on the CCh-mediated force response was verified using 100 nM heat-inactivated FIZZ1 (natural and recombinant FIZZ1 solution heated at 70° C. for 60 min). Their dose-response curves were obtained as above. Fresh drug solutions such as CCh and ISO were made up on the day of the experiment. Doses of the above agents refer to the final bath concentration.
At the end of each force measurement experiment, tracheas were blotted on a gauze pad and weighted. Results were calculated as milligram of tension per milligram of TSM weight (mg/mg) and expressed as an individual percentage (%) of 10 μM CCh- or 200 μM papaverine-induced tension response in PBS-treated trachea. For the control group, CCh (papaverine)-mediated responses were normalized to the mean value of the maximal responses.

[2] = system: MLCK, MLC-20, α-actin, G proteins, c-Raf/ERK1/2/p38 MAPK in trachea; experiment: Western blot of protein expression in treated trachea; assay type: cell-based, mouse
Protocol: PBS- and FIZZ1-treated trachea were cultured in DMEM overnight for Western blot analysis. Treated and untreated trachea were harvested and homogenized separately in lysis buffer containing 20 mM […], 2.0 mM EGTA, 5.0 mM EDTA, 30 mM sodium fluoride, 40 mM β-glycerophosphate, 20 mM sodium orthovanadate, 1.0 mM phenylmethylsulfonyl-fluoride, 3.0 mM benzamidine, 5 μM pepstatin A, 10 μM leupeptin and 0.5% Triton X-100 at pH 7.2 (KINEXUS, Canada). Tissue supernatants were centrifuged (15,000×g) for 60 min at 4° C. and protein concentrations in the cleared supernatant of homogenized trachea and BAL were examined by bicinchoninic acid assay (BCA) (Pierce Biotechnology, Rockford, Ill.). Absorbance of total protein from each group was measured spectrophotometrically at an optical density of 562 nm and different concentrations of bovine serum albumin (BSA) were applied as a standard curve. Proteins concentrations (μg/ml) were quantified with the standard curve of BSA using BCA assay. Samples were stored at −70° C. until use.
Protein expression levels of were examined using Western blot analysis. Briefly, aliquots (100 μg/well) of BAL supernatant and tracheal lysate were loaded onto 4-20% SDS-PAGE gel in an equal volume. Size-fractionated proteins were transferred to nitrocellulose membrane and then blocked with 5% nonfat dried milk in TBS at room temperature for 60 min. The membrane was individually incubated with primary antibodies to either FIZZ1 (Rabbit anti-mouse FIZZ1, Antigenix America Inc., USA), MLCK, MLC-20, α-actin, Giα1,2, Ggα11, β-actin (Sigma, USA), Gα12/13 (Santa Cruz Biotechnology, Inc., USA), c-Raf, phospho-c-Raf, ERK1/2, phospho-ERK1/2, p38 MAPK or phospho-p38 MAPK (Cell Signaling, Inc., USA) at 4° C. overnight, washed three times with TBS and then incubated with peroxidase-conjugated secondary antibodies for another 60 min. The blot was washed 3 times with TBS and a mixture of Western Blotting Detection Reagent I and II (GE Healthcare Life Sciences, Piscataway, N.J.) was poured on the membrane with gentle agitation for 1 min at room temperature. Immunoreactive bands were detected by chemiluminesence. Protein expression levels were evaluated in relative to expression of β-actin in the same tissue. Quantification of Western blots for phosphorylated signaling proteins was performed using ImageJ and relative band intensity was calculated as % of the intensity of the β-actin protein band.

[3] = 24 hours after rFIZZ1 treatment vs PBS, n=3
[4] = FIZZ1-treated vs PBS-treated trachea, relative to β-actin

B1: rFIZZ1: recombinant FIZZ1 (Leinco Technologies), mouse FIZZ1 protein, resistin-like molecule-α (protein, listed as Mus musculus)
chain: MKTTTCSLLICISLLQLMVPVNTDETIEIIVENKVKELLANIPANYPSTVTKTLSCTSVKTMNRWASCPAGMTATGCACGFACGSWEIQSGDTCNCLCLLV
modifications: (1)..(101) Murine FIZZ1 polypeptide
[1]; 10 nM rFIZZ1, cultured 24 hours, n=6
  Maximal tensions (%), CCh-evoked force generation: 117.21±7.87%
[1]; 100 nM rFIZZ1, cultured 24 hours, n=6
  Maximal tensions (%), CCh-evoked force generation: 144.16±15.77%
[1]; FIG. 4B, 100 nM heat-inactivated or native rFIZZ1, 0.1 ng/mL LPS, PBS 100±4.82, n=6
  maximal responses (%) of the tracheal rings, CCh-evoked: 135.67±9.02%
[1]; trachea treated with FIZZ1 10 nM
  TSM sensitivity to CCh, LogEC50: −0.96 ± 0.05 μM
[1]; trachea treated with FIZZ1 100 nM
  TSM sensitivity to CCh, LogEC50: −0.99 ± 0.03 μM
[2]; 100 nM rFIZZ1- vs PBS-treated trachea, normalized to β-actin
  protein expression levels for α-actin and G proteins (Giα1,2, Gqα11, Gα12/13): similar
[2]; 100 nM rFIZZ1, greatly increasing only between 16 and 32 hours
  level of phosphorylation of c-Raf, ERK1/2 and p38 MAPK, kinetic profile: marked time-dependent increase
[2]; [3]
  expression of phospho-ERK1/2: increased
  expression of phospho-c-Raf: increased
  expression of phospho-p38 MAPK: increased
[2]; 24 hours, FIZZ1 vs PBS-cultured trachea
  expression of unphosphorylated c-Raf: slightly increased
[2]; [4]
  expression of MLC-20: increase
  expression of MLCK: increase
